Consider 13 molecules from US20240270821A1, “GIP/GLP1/GCG TRI-RECEPTOR AGONISTS AND USES THEREOF” (priority 2023, published 2024).

Holding throughout (assay): cell-based or functional assay
In one assay the target is hGLP-1R (Homo sapiens, UniProt P43220).
For assay [1], the target named is T1, human GIP receptor (human) (UniProt P48546).
T1 sequence (looked up): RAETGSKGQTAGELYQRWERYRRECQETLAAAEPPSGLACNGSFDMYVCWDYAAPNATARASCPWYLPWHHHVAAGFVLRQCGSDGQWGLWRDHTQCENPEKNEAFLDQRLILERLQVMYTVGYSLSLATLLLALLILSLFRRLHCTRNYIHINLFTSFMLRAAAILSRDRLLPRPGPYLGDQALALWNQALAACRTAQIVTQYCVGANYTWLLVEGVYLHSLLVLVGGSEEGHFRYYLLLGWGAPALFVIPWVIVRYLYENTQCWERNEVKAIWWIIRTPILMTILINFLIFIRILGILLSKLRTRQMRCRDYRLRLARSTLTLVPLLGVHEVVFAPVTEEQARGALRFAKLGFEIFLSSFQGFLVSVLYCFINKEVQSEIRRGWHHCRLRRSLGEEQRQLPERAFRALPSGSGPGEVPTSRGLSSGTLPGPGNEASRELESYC

The target in assay [2] is human glucagon receptor (human) (UniProt P47871).
Sequence of human glucagon receptor (human) (P47871 26-477): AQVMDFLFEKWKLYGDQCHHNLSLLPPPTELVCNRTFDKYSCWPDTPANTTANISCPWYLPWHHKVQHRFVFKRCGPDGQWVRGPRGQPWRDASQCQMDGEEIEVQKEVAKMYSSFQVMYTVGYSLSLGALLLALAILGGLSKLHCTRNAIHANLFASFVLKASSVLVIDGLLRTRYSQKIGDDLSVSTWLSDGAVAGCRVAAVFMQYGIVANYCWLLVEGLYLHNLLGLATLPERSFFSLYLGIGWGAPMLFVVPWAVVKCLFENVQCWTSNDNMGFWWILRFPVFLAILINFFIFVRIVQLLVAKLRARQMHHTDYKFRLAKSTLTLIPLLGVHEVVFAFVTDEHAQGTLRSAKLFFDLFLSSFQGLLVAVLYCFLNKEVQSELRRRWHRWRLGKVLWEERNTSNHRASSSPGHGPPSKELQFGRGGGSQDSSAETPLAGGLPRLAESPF

Sequence of hGLP-1R (P43220 24-463): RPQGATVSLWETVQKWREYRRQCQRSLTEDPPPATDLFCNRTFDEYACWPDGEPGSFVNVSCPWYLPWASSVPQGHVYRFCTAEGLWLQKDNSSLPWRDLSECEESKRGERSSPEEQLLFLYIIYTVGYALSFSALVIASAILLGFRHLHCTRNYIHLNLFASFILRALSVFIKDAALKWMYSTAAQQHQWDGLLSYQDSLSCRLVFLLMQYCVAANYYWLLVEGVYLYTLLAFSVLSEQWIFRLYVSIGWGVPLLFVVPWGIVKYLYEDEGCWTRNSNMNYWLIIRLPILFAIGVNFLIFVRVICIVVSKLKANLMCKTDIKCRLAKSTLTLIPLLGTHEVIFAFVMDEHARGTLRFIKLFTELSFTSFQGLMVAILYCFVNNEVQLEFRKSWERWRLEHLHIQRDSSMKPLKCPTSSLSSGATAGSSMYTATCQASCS

B1: Example 893 (SEQ ID NO: 899) (peptide)
chain: YXQGTFTSDXSQXLDKKAQXAFIEYLIEXGPSSGAPPPSGSGE
modifications: not fully specified; synthetic construct; SITE 2: note = 2-Aminoisobutyric Acid; SITE 10: note = 3-(4-Pyridyl)-L-alanine; SITE 13: note = alpha-methyl-leucine; SITE 17: note = Lysine is chemically modified through conjugation of the epsilon-amino group of the Lysine side chain with (gamma-Glu)2-CO-(CH2)16-CO2H; SITE 20:
As for B1, the figures for the cAMP Rel EC50 (with hGLP-1R; in assay [1]; in assay [2]) were 305 nM, 21.4 nM and 508 nM, respectively.

B2: Example 902 (peptide)
chain: YXQGTFTSDXSKXLDKKAQXAFIEYLIEXGPSSGAPPPSGSEE
modifications: synthetic construct; SITE 2: note = 2-Aminoisobutyric Acid; SITE 10: note = 3-(4-Pyridyl)-L-alanine; SITE 13: note = alpha-methyl-leucine; SITE 17: note = Lysine is chemically modified through conjugation of the epsilon-amino group of the Lysine side chain with (2-[2-(2-Amino-ethoxy)-ethoxy]-acetyl)
B2: the Relative cAMP EC50 stood at 2.58 nM with hGLP-1R, 0.19 nM in assay [1] and 15.9 nM in assay [2]. Also, the cAMP Rel EC50 (1% HSA) in the assay with hGLP-1R turned out to be 232 nM; in assay [1], 28.5 nM; in assay [2], 1360 nM.

B3: Example 905 (peptide)
chain: YXQGTFTSDXSKXLDKKAQXAFIEYLIEXGPSSGAPPPSGSEE
modifications: synthetic construct; SITE 2: note = 2-Aminoisobutyric Acid; SITE 10: note = 3-(4-Pyridyl)-L-alanine; SITE 13: note = alpha-methyl-leucine; SITE 17: note = Lysine is chemically modified through conjugation of the epsilon-amino group of the Lysine side chain with (gamma-Glu)2-CO-(CH2)16-CO2H; SITE 20:
Regarding B3, the values for the Relative cAMP EC50 (in the assay with hGLP-1R; in assay [1]; in assay [2]) were 2.52 nM, 0.217 nM and 12.3 nM, respectively. In addition, the results for the cAMP Rel EC50 (1% HSA) (in the assay with hGLP-1R; in assay [1]; in assay [2]) were 215 nM, 10.4 nM and 1390 nM, respectively.

B4: Example 822 (peptide)
chain: YXQGTFTSDXSQXLDKKAQXAFIEYLLEAGPSSGAPPPSGX
modifications: synthetic construct; SITE 2: note = 2-Aminoisobutyric Acid; SITE 10: note = 3-(4-Pyridyl)-L-alanine; SITE 13: note = alpha-methyl-leucine; SITE 17: note = Lysine is chemically modified through conjugation of the epsilon-amino group of the Lysine side chain with (2-[2-(2-Amino-ethoxy)-ethoxy]-acetyl)
In the case of B4, the Relative cAMP EC50 with hGLP-1R amounted to 2.51 nM; in assay [1] it was 0.186 nM; in assay [2], 11.6 nM. Further, the cAMP Rel EC50 (1% HSA) in the assay with hGLP-1R was found to be 322 nM; in assay [1], 18.1 nM; in assay [2] it was 2100 nM.

B5: Example 909 (peptide)
chain: YXQGTFTSDXSRXLDKKAQXAFIEXLLEGGPSSGAPPPSGS
modifications: synthetic construct; SITE 2: note = 2-Aminoisobutyric Acid; SITE 10: note = 3-(4-Pyridyl)-L-alanine; SITE 13: note = alpha-methyl-leucine; SITE 17: note = Lysine is chemically modified through conjugation of the epsilon-amino group of the Lysine side chain with (2-[2-(2-Amino-ethoxy)-ethoxy]-acetyl)
Consider B5, for which the values for the Relative cAMP EC50 (with hGLP-1R; in assay [1]; in assay [2]) were 1.72 nM, 0.121 nM and 6.82 nM, respectively. Further, the figures for the cAMP Rel EC50 (1% HSA) (with hGLP-1R; in assay [1]; in assay [2]) were 243 nM, 20.2 nM and 1740 nM, respectively.

B6: Example 824 (peptide)
chain: YXQGTFTSDXSQXLDKKAQXAFIEYLLEAGPSSXAPPPSGT
modifications: C-terminal amide; acylated; synthetic construct; SITE 2: note = 2-Aminoisobutyric Acid; SITE 10: note = 3-(4-Pyridyl)-L-alanine; SITE 13: note = alpha-methyl-leucine; SITE 17: note = Lysine is chemically modified through conjugation of the epsilon-amino group of the Lysine side chain with (2-[2-(2-Amino-ethoxy)-ethoxy]-acetyl)
B6: the values for the Relative cAMP EC50 (with hGLP-1R; in assay [1]; in assay [2]) were 2.43 nM, 0.123 nM and 7.92 nM, respectively. Also, the values for the cAMP Rel EC50 (1% HSA) (with hGLP-1R; in assay [1]; in assay [2]) were 343 nM, 28.9 nM and 1110 nM, respectively.

B7: Example 823 (peptide)
chain: YXQGTFTSDXSQXLDKKAQXAFIEYLLEAGPSSGAPPPSGT
modifications: synthetic construct; SITE 2: note = 2-Aminoisobutyric Acid; SITE 10: note = 3-(4-Pyridyl)-L-alanine; SITE 13: note = alpha-methyl-leucine; SITE 17: note = Lysine is chemically modified through conjugation of the epsilon-amino group of the Lysine side chain with (2-[2-(2-Amino-ethoxy)-ethoxy]-acetyl)
B7: the figures for the Relative cAMP EC50 (with hGLP-1R; in assay [1]; in assay [2]) were 2.96 nM, 0.171 nM and 7.75 nM, respectively. In addition, the cAMP Rel EC50 (1% HSA) with hGLP-1R amounted to 421 nM; in assay [1] it was 25.6 nM; in assay [2], 1410 nM.

B8: Example 825 (peptide)
chain: YXQGTFTSDXSQXLDKKAQXAFIEYLLEAGPSSXAPPPSGT
modifications: synthetic construct; SITE 2: note = 2-Aminoisobutyric Acid; SITE 10: note = 3-(4-Pyridyl)-L-alanine; SITE 13: note = alpha-methyl-leucine; SITE 17: note = Lysine is chemically modified through conjugation of the epsilon-amino group of the Lysine side chain with (2-[2-(2-Amino-ethoxy)-ethoxy]-acetyl)
For B8, the Relative cAMP EC50 stood at 3.4 nM with hGLP-1R, 0.12 nM in assay [1] and 5.53 nM in assay [2]. Moreover, the cAMP Rel EC50 (1% HSA) in the assay with hGLP-1R stood at 303 nM; in assay [1], 39.3 nM; in assay [2] it was 1810 nM.

B9: Example 910 (peptide)
chain: YXQGTFTSDXSQXLDKKAQXAFIEXLLEGGPSSGAPPPSGS
modifications: synthetic construct; SITE 2: note = 2-Aminoisobutyric Acid; SITE 10: note = 3-(4-Pyridyl)-L-alanine; SITE 13: note = alpha-methyl-leucine; SITE 17: note = Lysine is chemically modified through conjugation of the epsilon-amino group of the Lysine side chain with (2-[2-(2-Amino-ethoxy)-ethoxy]-acetyl)
In the case of B9, the Relative cAMP EC50 was 1.49 nM with hGLP-1R, 0.111 nM in assay [1] and 9.76 nM in assay [2]. Also, the cAMP Rel EC50 (1% HSA) stood at 239 nM with hGLP-1R, 25.7 nM in assay [1] and 2640 nM in assay [2].

B10: Example 883 (SEQ ID NO: 889) (peptide)
chain: YXQGTFTSDXSQXLDKKAQXAFIEYLIAGGPSSGAPPPSGE
modifications: synthetic construct; SITE 2: note = 2-Aminoisobutyric Acid; SITE 10: note = 3-(4-Pyridyl)-L-alanine; SITE 13: note = alpha-methyl-leucine; SITE 17: note = Lysine is chemically modified through conjugation of the epsilon-amino group of the Lysine side chain with (gamma-Glu)2-CO-(CH2)16-CO2H; SITE 20:
Consider B10, for which the cAMP Rel EC50 with hGLP-1R was 120 nM; in assay [1] it was 9.41 nM; in assay [2], 578 nM.

B11: Example 911 (peptide)
chain: YXQGTFTSDXSQXLDXKAQXAFIEXLLEGGPSSGAPPPSGS
modifications: acylated Lys AEEA-γGlu-C18 diacid; non-natural residues; C-terminal amide; synthetic construct; SITE 2: note = 2-Aminoisobutyric Acid; SITE 10: note = 3-(4-Pyridyl)-L-alanine; SITE 13: note = alpha-methyl-leucine; SITE 16: note = L-ornithine; SITE 17: note = Lysine is chemically modified through conjugation of the epsilon-amino group of the Lysine side chain with (2-[2-(2-
As for B11, the cAMP Rel EC50 (1% HSA) in the assay with hGLP-1R worked out at 255 nM; in assay [1] it was 26.6 nM; in assay [2] it was 2390 nM.

B12: Example 903 (peptide)
chain: YXQGTFTSDXSKXLDKKAQXAFIEYLIEXGPSSGAPPPSGSEEE
modifications: synthetic construct; SITE 2: note = 2-Aminoisobutyric Acid; SITE 10: note = 3-(4-Pyridyl)-L-alanine; SITE 13: note = alpha-methyl-leucine; SITE 17: note = Lysine is chemically modified through conjugation of the epsilon-amino group of the Lysine side chain with (2-[2-(2-Amino-ethoxy)-ethoxy]-acetyl)
On to B12, for which the Relative cAMP EC50 turned out to be 2.7 nM with hGLP-1R, 0.277 nM in assay [1] and 12.9 nM in assay [2]. The values for the cAMP Rel EC50 (1% HSA) (with hGLP-1R; in assay [1]; in assay [2]) were 387 nM, 31.2 nM and 1630 nM, respectively.

B13: Example 906 (peptide)
chain: YXQGTFTSDXSKXLDKKAQXAFIEYLIEXGPSSGAPPPSGSEEE
modifications: synthetic construct; SITE 2: note = 2-Aminoisobutyric Acid; SITE 10: note = 3-(4-Pyridyl)-L-alanine; SITE 13: note = alpha-methyl-leucine; SITE 17: note = Lysine is chemically modified through conjugation of the epsilon-amino group of the Lysine side chain with (gamma-Glu)2-CO-(CH2)16-CO2H; SITE 20:
As to B13, the Relative cAMP EC50 with hGLP-1R came out at 2.48 nM; in assay [1], 0.212 nM; in assay [2], 14.7 nM. In addition, the cAMP Rel EC50 (1% HSA) with hGLP-1R worked out at 236 nM; in assay [1], 15.4 nM; in assay [2] it was 1170 nM.
